Here are results for one molecule from paper PMC7196805.

The target in this experiment is T1, JUNO (mouse (endogenous in mouse oocytes)) (UniProt Q9EQF4).
T1 sequence: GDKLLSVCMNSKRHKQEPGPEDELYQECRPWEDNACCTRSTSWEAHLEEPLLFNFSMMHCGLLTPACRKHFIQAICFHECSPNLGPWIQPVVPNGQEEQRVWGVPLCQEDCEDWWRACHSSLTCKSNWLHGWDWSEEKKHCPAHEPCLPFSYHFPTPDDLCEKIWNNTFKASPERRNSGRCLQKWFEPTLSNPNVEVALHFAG

B1: IZUMO1 (natural protein)
chain: CIKCDQFVTDALKTFENTYLNDHLPHDIHKNVMRMVNHEVSSFGVVTSAEDSYLGAVDENTLEQATWSFLKDLKRITDSDLKGELFIKELLWMLRHQKDIFNNLARQFQKEVLCPNKCGVMSQTLIWCLKCEKQLHICRKSLDCGERHIEVHRSEDLVLDCLLSWHRASKGLTDYSFYRVWENSSETLIAKGKEPYLTKSMVGPEDAGNYRCVLDTINQGHATVIRYDVTVLPPKHSEENQPPNIITQEEHETPVHVTPQTPPGQEPESELYPELHPELYPELIPTVAQNPEKKMKTRLLILLTLGFVVLVASIIISVLHFRKVSAKLKNASDEVKPTASGSKSDQSLSQQMGLKKASQADFNSDYSGDKSEATEN
Regarding B1, the cell-oocyte binding assay: IZUMO1-expressing cultured cells bound per ZP-free oocyte (FIMP-expressing cells could not bind) (cells per oocyte) was 4; the cell-oocyte binding assay: transfected HEK293T cells coexpressing IZUMO1 and FIMP, bound per oocyte (coexpression of FIMP did not enhance the binding) (cells per oocyte) turned out to be 4.1; the cell-oocyte binding assay: transfected HEK293T cells expressing IZUMO1 alone, bound per oocyte (cells per oocyte) was found to be 4.5.
